Target: native Tyr-p3 (group 3 allergen of Tyrophagus putrescentiae) (Tyrophagus putrescentiae) (UniProt C6ZDB5)
Sequence of UniProt C6ZDB5 (C6ZDB5 34-285): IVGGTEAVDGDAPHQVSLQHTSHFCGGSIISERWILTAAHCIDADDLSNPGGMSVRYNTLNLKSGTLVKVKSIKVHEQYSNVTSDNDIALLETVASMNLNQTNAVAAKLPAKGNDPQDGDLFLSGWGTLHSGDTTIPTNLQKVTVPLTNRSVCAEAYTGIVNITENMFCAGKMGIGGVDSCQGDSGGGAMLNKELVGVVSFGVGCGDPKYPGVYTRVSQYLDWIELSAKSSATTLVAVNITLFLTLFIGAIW

With “soybean trypsin inhibitor (from UniProt P01070 25-205) (natural protein)” as the substance, how does the inhibition of the protease activity of nTyr-p3 on the substrate TAME (OD 405 nm; sample pretreated with 10 mM inhibitor for 60 min at 25°C) read?
The inhibition of the protease activity of nTyr-p3 on the substrate TAME (OD 405 nm; sample pretreated with 10 mM inhibitor for 60 min at 25°C) was 88%.

— paper PMC8456102
